{"source": "patent US20220265759", "proteins": {"B1": {"name": "human endothelial nitric oxide synthase (eNOS) (protein)", "chain": "GNLKSVAQEPGPPCGLGLGLGLGLCGKQGPATPAPEPSRAPASLLPPAPEHSPPSSPLTQPPEGPKFPRVKNWEVGSITYDTLSAQAQQDGPCTPRRCLGSLVFPRKLQGRPSPGPPAPEQLLSQARDFINQYYSSIKRSGSQAHEQRLQEVEAEVAATGTYQLRESELVFGAKQAWRNAPRCVGRIQWGKLQVFDARDCRSAQEMFTYICNHIKYATNRGNLRSAITVFPQRCPGRGDFRIWNSQLVRYAGYRQQDGSVRGDPANVEITELCIQHGWTPGNGRFDVLPLLLQAPDDPPELFLLPPELVLEVPLEHPTLEWFAALGLRWYALPAVSNMLLEIGGLEFPAAPFSGWYMSTEIGTRNLCDPHRYNILEDVAVCMDLDTRTTSSLWKDKAAVEINVAVLHSYQLAKVTIVDHHAATASFMKHLENEQKARGGCPADWAWIVPPISGSLTPVFHQEMVNYFLSPAFRYQPDPWKGSAAKGTGITRKKTFKEVANAVKISASLMGTVMAKRVKATILYGSETGRAQSYAQQLGRLFRKAFDPRVLCMDEYDVVSLEHETLVLVVTSTFGNGDPPENGESFAAALMEMSGPYNSSPRPEQHKSYKIRFNSISCSDPLVSSWRRKRKESSNTDSAGALGTLRFCVFGLGSRAYPHFCAFARAVDTRLEELGGERLLQLGQGDELCGQEEAFRGWAQAAFQAACETFCVGEDAKAAARDIFSPKRSWKRQRYRLSAQAEGLQLLPGLIHVHRRKMFQATIRSVENLQSSKSTRATILVRLDTGGQEGLQYQPGDHIGVCPPNRPGLVEALLSRVEDPPAPTEPVAVEQLEKGSPGGPPPGWVRDPRLPPCTLRQALTFFLDITSPPSPQLLRLLSTLAEEPREQQELEALSQDPRRYEEWKWFRCPTLLEVLEQFPSVALPAPLLLTQLPLLQPRYYSVSSAPSTHPGEIHLTVAVLAYRTQDGLGPLHYGVCSTWLSQLKPGDPVPCFIRGAPSFRLPPDPSLPCILVGPGTGIAPFRGFWQERLHDIESKGLQPTPMTLVFGCRCSQLDHLYRDEVQNAQQRGVFGRVLTAFSREPDNPKTYVQDILRTELAAEVHRVLCLERGHMFVCGDVTMATNVLQTVQRILATEGDMELDEAGDVIGVLRDQQRYHEDIFGLTLRTQEVTSRIRTQSFSLQERQLRGAVPWAFDPPGSDTNSP"}}, "target": "T1, human chemokine receptor CCR10, P46092", "T1 chain": "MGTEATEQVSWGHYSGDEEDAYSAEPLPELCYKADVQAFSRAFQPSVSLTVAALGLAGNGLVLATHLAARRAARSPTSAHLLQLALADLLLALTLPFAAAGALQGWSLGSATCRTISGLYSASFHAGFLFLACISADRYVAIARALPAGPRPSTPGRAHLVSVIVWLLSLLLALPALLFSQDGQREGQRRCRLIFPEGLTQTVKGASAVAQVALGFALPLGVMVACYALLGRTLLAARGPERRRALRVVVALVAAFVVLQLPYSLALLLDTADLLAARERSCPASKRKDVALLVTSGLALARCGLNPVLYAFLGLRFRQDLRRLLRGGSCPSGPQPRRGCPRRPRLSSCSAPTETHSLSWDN"}
{"protein": "B1", "values": [{"measurement": "eNOS phosphorylation (Ser1177) in presence of Myr-CBD7", "value": "eNOS phosphorylation (Ser1177) was significantly enhanced in presence of Myr-CBD7"}, {"measurement": "phosphorylation of eNOS after CCR10 siRNA knockdown (western blot, A23187 stimulation)", "value": "phosphorylation of eNOS was significantly increased compared to control siRNA, even at 0 minutes"}]}
